Our source for the Tm values is FireProtDB (doi:10.1038/nsb0196-54).

By Tm is commonly meant the temperature at which the thermal transition is half complete.

For this data set the following is noted: Escherichia coli; pH 7; Thermal; CD; Sodium phosphate 10 mM; NaCl 350 mM; whole UniProt chain shown.

B1: Regulatory protein rop wild type, P03051 (protein)
chain: MTKQEKTALNMARFIRSQTLTLLEKLNELDADEQADICESLHDHADELYRSCLARFGDDGENL
As for B1, the Tm is 68.7 °C.
